Measurements published in patent publication US20030138848A1, “3D structure of polypeptides containing a TPR-structure motif with chaperone-binding function, crystals thereof and compounds for inhibition of said polypeptides” (priority 2000, published 2003).
Blank lines part the entries; values can stand above or below the molecule they belong to. Ends that are not written are not given here.

Key:
[1] = biological target: T1, TPR1 domain of the Hop protein (Homo sapiens, UniProt P31948); test: Isothermal titration calorimetry, binding to TPR1 domain of Hop; settings: ITC at 25° C.
T1 construct: Codons 1-118 (TPR1) and 223-352 (TPR2A) of human Hop protein were cloned; hexahistidine (TEV-cleavable) (N, cleaved yes); made in house; host or cells: E. coli BL21 (DE3)
Protocol: (§1) FIG. 6 is a plotting of the thermo-dynamic analysis of the interaction of TPR1 and TPR2A with the C-terminal sequences of Hsp70 and Hsp90. […] The sequence […] corresponds with the 12 C-terminal amino acid residues of Hsc70. […] corresponds with the 12 C-terminal amino acid residues of Hsp90.
(§2) 40-50 aliquots of 5•μl peptide solution (7.5 mM-15 mM) were titrated at 25° C. by injection into a 1.36 ml TPR1 (TPR2A) solution (450•M-950•M) into the chamber. Alternatively, a solution of 3 mM TPR1 (TPR2A) in 180•M C70 (C90) solution was titrated in the chamber. […] Typically, the injections were continued past the saturation limits in order to be able to determine the heat of the ligand solution. After subtracting the solution heat, the calorimetric data was analysed, where an assessment software was used, which is provided by the manufacturer (version 2.9; MicroCal Software, Inc.).

[2] = biological target: T2, TPR2A domain of the Hop protein (Homo sapiens, UniProt P31948); test: Isothermal titration calorimetry, binding to TPR2A domain of Hop; settings: ITC at 25° C.
T2 construct: Codons 1-118 (TPR1) and 223-352 (TPR2A) of human Hop protein were cloned; hexahistidine (TEV-cleavable) (N, cleaved yes); made in house; host or cells: E. coli BL21 (DE3)
Protocol: as §1, §2

[3] = biological target: T3, TPR1 domain of human Hop protein (codons 1-118) (human, UniProt P31948 4-118); test: ITC, 25 °C
T3 construct: Expressed in E. coli with a removable N-terminal His6 tag, which was cleaved with TEV; It could not be checked that the entry is exactly residues 1-118; also called N-terminal TPR domain of Hop
Protocol: as §1
(§3) 40-50 aliquots of 5•μl peptide solution (7.5 mM-15 mM) were titrated at 25° C. by injection into a 1.36 ml TPR1 (TPR2A) solution (450•M-950•M) into the chamber. Alternatively, a solution of 3 mM TPR1 (TPR2A) in 180•M C70 (C90) solution was titrated in the chamber. The peptides were dissolved in and the proteins were dialysed against the buffer G (25 mM, pH 7.5, 100 mM Kac, 5 mM MgAc₂). Typically, the injections were continued past the saturation limits in order to be able to determine the heat of the ligand solution. After subtracting the solution heat, the calorimetric data was analysed, where an assessment software was used, which is provided by the manufacturer (version 2.9; MicroCal Software, Inc.).

[4] = biological target: T4, TPR2A domain of human Hop protein (codons 223-352) (human, UniProt P31948 225-352); test: ITC, 25 °C
T4 construct: Expressed in E. coli, His6 tag cleaved with TEV; A selenomethionine-labelled form was made for MAD phasing; also called TRP2A
Protocol: as §1, §3

T3 sequence (P31948 other isoform, or with tags, fused parts or gaps limits assumed): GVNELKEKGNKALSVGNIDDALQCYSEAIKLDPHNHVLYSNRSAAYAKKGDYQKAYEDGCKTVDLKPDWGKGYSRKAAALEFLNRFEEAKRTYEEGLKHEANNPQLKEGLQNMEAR
T1 sequence (P31948 1-118): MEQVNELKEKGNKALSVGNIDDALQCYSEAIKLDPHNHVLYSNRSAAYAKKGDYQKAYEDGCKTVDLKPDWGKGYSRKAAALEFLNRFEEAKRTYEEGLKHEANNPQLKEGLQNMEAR
T4 sequence (P31948 other isoform, or with tags, fused parts or gaps limits assumed): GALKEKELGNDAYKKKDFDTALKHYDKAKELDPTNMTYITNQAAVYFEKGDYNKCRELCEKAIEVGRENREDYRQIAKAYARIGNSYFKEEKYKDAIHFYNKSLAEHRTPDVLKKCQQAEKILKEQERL
T2 sequence (P31948 223-352): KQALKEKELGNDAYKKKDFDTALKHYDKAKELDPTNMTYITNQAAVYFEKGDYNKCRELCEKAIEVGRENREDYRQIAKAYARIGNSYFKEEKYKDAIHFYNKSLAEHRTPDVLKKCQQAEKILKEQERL

Molecule: C70: C-terminal fragment of human Hsp70 (codons 382-641), 25 kDa domain
stoichiometry N ([1]; binding to TPR1, listed as 25 kDa fragment of human Hsp70): ~1

Molecule: C90: C-terminal domain of human Hsp90 (codons 625-732), 12 kDa fragment including dimerisation domain and authentic C-terminal
stoichiometry factor [2]: ~1
binding to TPR1, result in words [1]: weak, non-specific binding

B1: C-terminal heptamer peptide of Hsc70 (peptide)
peptide: Ac-PTIEEVD
Kd [3]: 15 to 20 µM

Results, then the molecule that gave them:

binding to TPR1, result in words [1]: same affinities
Molecule: GSGGPTIEEVD [Hsc70 Dodekamer, peptide of the 12 C-terminal amino acid residues of Hsc70]

binding to TPR1, result in words [1]: same affinities
Molecule: GASSGPTIEEVD [Hsp70 Dodekamer, C-terminal dodecamer of Hsp70]

fold increase in affinity (against the EEVD motif alone) [3]: 20 fold
B2: Hsp70 peptide GPTIEEVD (peptide)
peptide: Ac-GPTIEEVD
notes: also called structured octamer peptide

Kd [4]: 90 µM
Kd [3]: ~300 µM
B3: tetrapeptide EEVD (peptide)
peptide: Ac-EEVD
notes: also called EEVD peptide; EEVD motif
